Target: purified soluble human HM1.24 antigen (HA-tagged, from soluble human HM1.24 antigen-expressing CHO cells) (human)
Experiment: sandwich ELISA with purified antigen at 5000-fold dilution (about 76.4 ng/mL) captured by anti-HA antibody; lowest measurable antibody concentration

## reshaped human anti-HM1.24 antibody (humanized anti-HM1.24 antibody), light chain version a and heavy chain version s
  measurement limit: 500 pg/mL
